Measured values taken from patent US20090180995A1, “NOVEL ANTICOAGULANT POLYPEPTIDES AND COMPLEX” (National University of Singapore, priority 2005, published 2009).
Entries after “also recorded” stand apart in the source; their conditions may differ.

B1: hemextin B (protein)
chain: LKCKNKVVPFLKCKNKVVPFLCYKMTLKKVPKIPIKRGCTDACPKSSLLVNVMCCKTDKCN
B2: hemextin A (protein)
chain: LKCKNKLVPFLSKTCPEGKNLCYKMTMLKMPKIPIKRGCTDACPKSSLLVKVVCCNKDKCN
B3: hemextin AB complex: synergistic 1:1 tetrameric complex of hemextin A and hemextin B, reconstituted from equimolar proteins (protein)
chain 1: B2 chain
chain 2: B1 chain

Key:
Assay type in all cases: biochemical
plasma = test: Thrombin time; details: human plasma, thrombin reagent
Procedure: Anticoagulant activity—The anticoagulant activities of H. haemachatus venom and its fractions was determined by four coagulation tests using a BBL fibrometer: • 1. Recalcification time: The recalcification times were determined according to the method of Langdell et al. (25). 50 mM Tris-HCl buffer (pH 7.4) (100 μl), plasma (100 μl) and various concentrations of venom or its fraction (50 μl) were preincubated for 2 min at 37° C. Clotting was initiated by the addition of 50 μl of 50 mM CaCl2. • 2. Prothrombin time: The prothrombin times were measured according to the method of Quick (26). […] Clotting was initiated by the addition of thromboplastin with calcium reagent (150 μl) which can be purchased from Sigma (St. Louis, Mo., USA). • For studying the role of electrostatic interactions, the anticoagulant activity of a specific concentration of hemextin A (4.4 μM), hemextin B (4.4 μM) and hemextin AB complex (0.11 μM) was monitored in 50 mM Tris-HCl (pH 7.4) containing various concentrations of NaCl (35 mM to 150 mM). • For studying the role of hydrophobic interactions, the anticoagulant activity of a specific concentration of hemextin A (4.4 μM), hemextin B (4.4 μM) and hemextin AB complex (0.11 μM) was monitored in 50 mM Tris-HCl (pH 7.4) containing various concentrations of glycerol (125 mM to 250 mM). • 2. […] Thrombin time: Thrombin time was determined according to the method of Jim (28). […]

FVIIa-sTF [1] = target: T1, FVIIa-sTF (Homo sapiens, UniProt P08709); test: FVIIa-sTF amidolytic activity; details: FVIIa-sTF (30 nM)/S-2288
T1 construct: made in house; host or cells: Saccharomyces cerevisiae (sTF); human plasma (FVIIa)
T1 sequence (P08709 61-212 limits assumed): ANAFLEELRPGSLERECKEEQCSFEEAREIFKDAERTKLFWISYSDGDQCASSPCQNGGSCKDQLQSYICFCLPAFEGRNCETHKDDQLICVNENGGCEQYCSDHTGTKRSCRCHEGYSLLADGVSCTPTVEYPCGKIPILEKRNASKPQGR
T1 sequence (P08709 213-466 limits assumed): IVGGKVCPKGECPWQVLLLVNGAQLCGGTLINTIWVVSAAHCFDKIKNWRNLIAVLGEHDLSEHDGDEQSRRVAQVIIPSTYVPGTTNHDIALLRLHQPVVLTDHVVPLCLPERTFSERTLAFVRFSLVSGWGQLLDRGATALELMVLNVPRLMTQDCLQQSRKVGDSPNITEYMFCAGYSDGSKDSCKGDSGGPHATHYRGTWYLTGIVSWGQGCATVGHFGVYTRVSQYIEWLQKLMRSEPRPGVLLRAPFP
T1 sequence (P13726 33-251 partner limits assumed): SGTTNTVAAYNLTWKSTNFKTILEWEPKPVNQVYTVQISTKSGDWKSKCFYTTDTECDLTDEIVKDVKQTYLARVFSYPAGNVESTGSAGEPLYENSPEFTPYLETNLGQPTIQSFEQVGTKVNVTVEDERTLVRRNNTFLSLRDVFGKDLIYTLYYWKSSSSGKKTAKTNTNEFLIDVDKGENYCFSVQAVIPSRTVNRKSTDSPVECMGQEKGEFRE
Procedure: Serine protease specificity—The selectivity profile of anticoagulant proteins and their complex was examined against 12 serine proteases—procoagulant serine proteases (FIXa, FXa, FXIa, FXIIa, plasma kallikrein and thrombin), anticoagulant serine protease (APC), fibrinolytic serine proteases (urokinase, t-PA and plasmin) and classical serine proteases (trypsin and chymotrypsin). Various concentrations of purified hemextin A/hemextin B and reconstituted hemextin AB complex were preincubated with each of the enzymes (Table 1) for a period of five minutes at a temperature of 37° C., followed by the addition of appropriate chromogenic substrate.
For studies with FXIa, kallikrein and urokinase, the appropriate substrates were determined prior to their screening against the inhibitors. For FXIa, the Vmax for the amidolytic activity corresponding to the chromogenic substrates S-2266, S-2302 and S-2366 was determined. S-2302 was the substrate with the highest Vmax and thus was used in the screening studies. Similar studies with kallikrein and urokinase were carried out with substrates S-2266, S-2302 and S-2288 for kallikrein and S-2444 and S-2484 for urokinase. […] The kinetic rate of substrate hydrolysis (mOD/min) was measured over 5 min.

FVIIa-sTF [2] = target: T1, FVIIa-sTF; test: Kinetics of inhibition of FVIIa-sTF amidolytic activity on S-2288
Procedure: Determination of kinetic constants for substrate hydrolysis—All studies were in assay buffer containing 50 mM Tris-HCl, pH 8.0, containing 150 mM NaCl, 10 mM CaCl2, and 1% BSA at 37° C. The kinetics of hydrolysis of the chromogenic substrate S-2288 by FVIIa-sTF was measured prior to examining the inhibitory effects of individual hemextins and the hemextin AB complex. Reactions were initiated by the addition of S-2288 (0-5 mM) to the individual wells of a 96-well plate containing FVIIa (30 nM) in complex with sTF (100 nM) in a final volume of 180 μl. Initial reaction velocities were measured as a linear increase in the absorbance at 405 nm (A405 nm) over 5 min, with a SPECTRAmax Plus® temperature-controlled microplate spectrophotometer (Molecular Devices, Sunnyvale, Calif.). The Km was derived from the nonlinear regression fit of the determined velocities, the value of which was 2.79 mM.
Kinetics of inhibition—The inhibitory potency of anticoagulant complex was measured over a range of substrate concentrations. Reactions were initiated by the addition of S-2288 to premixed enzyme-cofactor and inhibitor in the wells of a microtiter plate. Reactions with FVIIa-sTF contained 0.0125-0.05 μM of inhibitor complex and 0 to 3 mM of S-2288.
V=Vmax [S]/(1+[I]Ki)/{Km+[S]} (Eq. 1)

Row | Molecule | clotting time, thrombin time (plasma) | inhibition of FVIIa-sTF amidolytic activity (FVIIa-sTF [1]) | nature of inhibition of FVIIa-sTF activity (FVIIa-sTF [2]; S-2288, Lineweaver-Burk plots) | Ki (FVIIa-sTF [2]; S-2288, secondary plot) | Kcat (FVIIa-sTF [2]; [Inhibitor] 0.0125 μM) | Vmax (FVIIa-sTF [2]; [Inhibitor] 0.0125 μM) | Kcat (FVIIa-sTF [2]; [Inhibitor] 0.0250 μM) | Vmax (FVIIa-sTF [2]; [Inhibitor] 0.0250 μM) | Kcat (FVIIa-sTF [2]; [Inhibitor] 0.05 μM) | Vmax (FVIIa-sTF [2]; [Inhibitor] 0.05 μM)
1 | B1 | did not prolong clotting times | – | – | – | – | – | – | – | – | –
2 | B2 | did not prolong | potent inhibitory activity | – | – | – | – | – | – | – | –
3 | B3 | – | potent inhibitory activity | non-competitively; also recorded: non-competitive inhibitor | 25 nM | 40.93 s⁻¹ | 7.37E−05 | 30.58 s⁻¹ | 5.51E−05 | 20.87 s⁻¹ | 3.75E−05
